From patent US20200339702A1 (ULTRAHUMAN THIRTEEN, published 2020)

T1: rhesus ERBB3 on transiently transfected HEK-293 cells (rhesus monkey (Macaca mulatta), UniProt P21860 20-1342 (human entry))
T1 construct: also called rhesus ERBB3+ HEK-293 cells
T1 chain: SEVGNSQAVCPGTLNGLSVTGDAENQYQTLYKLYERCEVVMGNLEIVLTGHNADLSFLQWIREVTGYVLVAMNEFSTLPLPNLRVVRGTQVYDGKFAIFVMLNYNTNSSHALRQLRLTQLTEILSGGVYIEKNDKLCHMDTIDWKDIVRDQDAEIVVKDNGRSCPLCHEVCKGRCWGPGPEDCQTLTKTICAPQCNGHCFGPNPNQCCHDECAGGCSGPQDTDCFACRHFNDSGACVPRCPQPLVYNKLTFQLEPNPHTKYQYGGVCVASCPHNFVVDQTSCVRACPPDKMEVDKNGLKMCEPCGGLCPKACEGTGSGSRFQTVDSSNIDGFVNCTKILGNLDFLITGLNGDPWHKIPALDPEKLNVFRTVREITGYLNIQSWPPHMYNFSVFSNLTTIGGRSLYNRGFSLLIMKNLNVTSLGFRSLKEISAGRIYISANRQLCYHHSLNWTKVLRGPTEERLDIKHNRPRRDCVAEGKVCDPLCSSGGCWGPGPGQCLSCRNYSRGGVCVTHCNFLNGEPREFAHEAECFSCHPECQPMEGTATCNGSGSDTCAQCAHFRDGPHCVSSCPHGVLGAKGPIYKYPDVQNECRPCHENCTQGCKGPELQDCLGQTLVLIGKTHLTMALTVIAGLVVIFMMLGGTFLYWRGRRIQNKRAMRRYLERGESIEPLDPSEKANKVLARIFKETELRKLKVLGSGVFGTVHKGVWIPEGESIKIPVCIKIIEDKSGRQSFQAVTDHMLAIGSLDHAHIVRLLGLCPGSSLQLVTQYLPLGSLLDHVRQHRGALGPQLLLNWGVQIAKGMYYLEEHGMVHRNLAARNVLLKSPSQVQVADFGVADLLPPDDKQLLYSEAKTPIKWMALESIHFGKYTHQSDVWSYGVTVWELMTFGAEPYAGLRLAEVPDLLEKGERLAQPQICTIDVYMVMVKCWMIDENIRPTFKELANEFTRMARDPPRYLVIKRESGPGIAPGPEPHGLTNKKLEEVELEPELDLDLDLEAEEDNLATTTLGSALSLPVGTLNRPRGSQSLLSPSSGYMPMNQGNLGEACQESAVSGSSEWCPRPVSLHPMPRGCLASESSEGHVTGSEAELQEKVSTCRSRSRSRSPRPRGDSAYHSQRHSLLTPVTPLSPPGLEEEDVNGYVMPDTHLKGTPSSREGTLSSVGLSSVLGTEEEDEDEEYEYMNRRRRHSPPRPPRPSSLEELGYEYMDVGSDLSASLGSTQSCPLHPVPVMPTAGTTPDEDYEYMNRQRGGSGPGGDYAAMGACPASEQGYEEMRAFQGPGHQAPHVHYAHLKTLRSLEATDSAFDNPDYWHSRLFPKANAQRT


What was measured:
[1] = biological target: T2, human ERBB3 human Fc tagged recombinant protein (human, UniProt P21860 20-643); assay: direct binding ELISA on coated human ERBB3-Fc, IgG1null titrated
T2 construct: also called human ERBB3-Fc; huERBB3
Experimental: Binding and cross-reactivity of the lead panel to the recombinant proteins was initially assessed by binding ELISA. The human ERBB3 human Fc tagged recombinant protein and the rhesus monkey ERBB3 human Fc tagged recombinant protein were coated to the surface of MaxiSorp™ flat-bottom 96 well plate at 1 μg/ml. The purified IgG samples were titrated in two fold serial dilutions starting from 500 nM to 0.008 nM and allowed to bind to the coated antigens. The Fabs were detected using mouse anti-c-myc antibody followed by donkey anti-mouse IgG conjugated to horseradish peroxidase. The IgGs were detected using the mouse anti-human IgG conjugated to horseradish peroxidase. Binding signals were visualized with 3,3′,5,5′-Tetramethylbenzidine Substrate Solution (TMB) and the absorbance measured at 450 nm.

[2] = biological target: T3, human ERBB3 on transiently transfected HEK-293 cells (human, UniProt P21860 20-1342); assay: flow cytometry, human ERBB3-transfected HEK-293
T3 construct: also called human ERBB3+ HEK-293 cells
Procedure, shortened: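 Purified IgGs in IgG1null format were titrated threefold from 500 nM to 0.008 nM on HEK-293 cells transiently transfected with full-length human or rhesus ERBB3, with wild-type HEK-293 as comparison. Binding was detected with FITC anti-human IgG and read as mean fluorescence intensity of 10000 cells by flow cytometry.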

[3] = biological target: T1, rhesus ERBB3 on transiently transfected …; assay: flow cytometry, rhesus ERBB3-transfected HEK-293 cells, IgG1null titrated
Experimental: Purified IgGs were tested in FACs for binding to human and rhesus monkey ERBB3 expressed on transiently transfected HEK-293 cells and HEK-293 wild-type cells. The IgG samples were titrated in three-fold serial dilutions starting at 500 nM to 0.008 nM. Binding of IgGs was detected with a mouse anti-human IgG conjugated to FITC. Results were analyzed by examining the Mean Fluorescence Intensity (MFI) of 10000 cells per sample in the BL-1 channel detector of a flow cytometer (Attune™ NxT Acoustic Focusing Cytometer, Invitrogen/ThermoFisher Scientific).
Antibodies to ERBB3 were analysed for concentration-dependent binding at the cell surface via flow cytometry. HEK-293 cells were transiently transfected with either human or rhesus ERBB3 full-length cDNAs. Anti-ERBB3 IgGs and an isotype control were then all tested in IgG1null format, over a concentration range of 500-0.008 nM for binding to human (FIG. 5A) and rhesus (FIG. 5B) transfected cells.

[4] = biological target: T4, human ERBB3 His tagged, monomeric (human, UniProt P21860 20-643, biotinylated in the Alphascreen assays (sites not given)); assay: SPR (Biacore), captured IgG, monomeric ERBB3-His analyte
T4 construct: Used unbiotinylated as Biacore analyte and biotinylated in Alphascreen; treated as one molecule; also called human ERBB3-His (Acrobiosystems); biotinylated monomeric human ERBB3

Row | EC50 (read off the curve) [1] | maximum MFI, fold over isotype control background [2] | EC50 (read off the curve) [3] | Kd [4] | koff [4] | kon [4] | Binder
1 | ~0.2 nM | > 20 fold | ~0.4 nM | 0.27 nM | 0.0035 s⁻¹ | 1.3e+07 M⁻¹ s⁻¹ | 09D12 IgG1null (antibody, V domains shown, Human IgG1null and human Ckappa) VH: QVQLVESGGGLVKPGGSLRLSCAASGFTFSDYGMSWIRQAPGKGLEWVSTISDGGSYTYYADSVKGRFTISRDNAKNSLYLQMNSLRAEDTAVYYCAREYGDYDGFDYWGQGTLVTVSS VL: DIQMTQSPSSLSASVGDRVTITCRASQSISSYLNWYQQKPGKAPKLLIYAASSLDSGVPSRFSGSGSGTDFTLTISSLQPEDFATYYCLQYDSTPLTFGGGTKVEIK
2 | ~0.3 nM | > 20 fold | ~0.9 nM | 1.2 nM | 0.073 s⁻¹ | 6.2e+07 M⁻¹ s⁻¹ | TTP IgG1null (antibody, V domains shown, Designer clone; Human IgG1null and human Ckappa; also called Total Theoretically Possible clone) VH: QVQLVESGGGLVKPGGSLRLSCAASGFTFSDYGMSWIRQAPGKGLEWVSTISDSGSTIYYADSVKGRFTISRDNAKNSLYLQMNSLRAEDTAVYYCAREYGDYDGFDYWGQGTLVTVSS VL: DIQMTQSPSSLSASVGDRVTITCRASQSISSYLNWYQQKPGKAPKLLIYAASSLQSGVPSRFSGSGSGTDFTLTISSLQPEDFATYYCLQYDSTPLTFGGGTKVEIK
